Test [1] concerns the target T1, mouse TNC rCd4-His-FBG (rat; mouse, UniProt P05540 209-391; Q80YX1 1883-2110, limits assumed).
T1 construct: domain: domains 3 and 4;domain: FBG; Biotinylated in the capture ELISA; also called Mu TNC; mTNC; not shown: 6His tag
T1 sequence (chain (part 1 of 2), looked up): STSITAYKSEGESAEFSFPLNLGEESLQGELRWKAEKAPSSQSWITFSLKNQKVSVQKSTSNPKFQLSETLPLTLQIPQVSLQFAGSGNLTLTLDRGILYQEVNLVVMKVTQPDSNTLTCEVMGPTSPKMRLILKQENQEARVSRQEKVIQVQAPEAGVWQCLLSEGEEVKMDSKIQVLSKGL
T1 sequence (chain (part 2 of 2), looked up): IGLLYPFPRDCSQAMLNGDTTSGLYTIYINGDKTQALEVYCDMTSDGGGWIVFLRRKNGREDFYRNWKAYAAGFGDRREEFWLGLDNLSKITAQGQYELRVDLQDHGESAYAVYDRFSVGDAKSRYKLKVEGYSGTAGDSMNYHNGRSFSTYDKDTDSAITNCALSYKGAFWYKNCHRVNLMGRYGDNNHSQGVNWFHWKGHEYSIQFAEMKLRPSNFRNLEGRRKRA
Briefly: SPR BIAcore T200, 37 C, IgG4 captured on anti-human Fc, rCd4-His-FBG injected, 1:1 fit. As for the experimental part: (§1) For the kinetic assay ˜1,500-1,900 response units (RU) of anti-human Fc IgG (GE, BR-1008-39) was immobilised in all flow-cells (FC1-4) on a Series S CM5 sensor chip (BR-1005-30) using EDC/NHS cross-linking chemistry according to the amine coupling kit protocol (GE, BR-1000-50). […] Antibody capture levels ranged typically from 70 RU (for TNR interactions) to 90 RU (for TNC interactions).
(§2) A 1:1 dilution series of antigen in HBS-P+ (30 nM of human and mouse TNC rCd4-His-FBG and 480 nM of human TNR rCd4-His-FBG) was injected with a flow-path via the reference flow cell (FC1 and FC3, respectively) and the antibody capture flow cell (FC2 and FC4, respectively) with a flow rate of 30 μl/min. The association and dissociation phases were measured over a 3.5 and 30 min time period, respectively, for human and mouse TNC rCd4-His-FBG, and 2 and 8 min time period for human TNR rCd4-His-FBG. For interaction analysis with human and mouse TNC rCD4-His-FBG regeneration of free capture antibody surfaces after each antigen injection was done by injection of 3 M MgCl 2 for 60 s and for each sample injection a fresh NSCT antibody was captured. Carry over of antigen was prohibited by an extra needle wash step with 50% DMSO before every injection. Runs were performed at the more physiologically relevant temperature of 37° C.
(§3) Kinetic parameters were determined by reference cell subtraction and fitting the sensorgram experimental data to a 1:1 interaction model using the BIAcore T200 Evaluation software version 2.0.
A general note: SPR reads the build-up and loss of mass on a sensor chip optically.

In test [2] the target is T2, human TNR rCd4-His-FBG (rat; human, UniProt P05540 209-391; Q92752 1128-1358, limits assumed).
T2 construct: domain: domains 3 and 4;domain: FBG; also called Hu TNR; hTNR; not shown: 6His tag
T2 sequence (chain (part 1 of 2), looked up): T1 sequence (chain (part 1 of 2), looked up)
T2 sequence (chain (part 2 of 2), looked up): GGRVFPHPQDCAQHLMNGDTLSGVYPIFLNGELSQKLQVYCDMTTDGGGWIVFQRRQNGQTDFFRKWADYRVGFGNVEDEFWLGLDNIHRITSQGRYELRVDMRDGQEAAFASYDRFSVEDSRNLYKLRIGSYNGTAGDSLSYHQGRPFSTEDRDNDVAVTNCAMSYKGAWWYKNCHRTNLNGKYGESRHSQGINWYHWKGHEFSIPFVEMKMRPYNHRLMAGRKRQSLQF
The test is described as above. As for the experimental part: as §1, §2, §3

The target in test [3] is T3, human TNC rCd4-His-FBG (rat; human, UniProt P05540 209-391; P24821 1974-2201, limits assumed).
T3 construct: domain: domains 3 and 4;domain: FBG; C-terminal FBG fusion made in HEK293F cells; biotinylated in the ELISA and HTRF assays; also called Hu TNC; hTNC; not shown: 6His tag
T3 sequence (chain (part 1 of 2), looked up): T1 sequence (chain (part 1 of 2), looked up)
T3 sequence (chain (part 2 of 2), looked up): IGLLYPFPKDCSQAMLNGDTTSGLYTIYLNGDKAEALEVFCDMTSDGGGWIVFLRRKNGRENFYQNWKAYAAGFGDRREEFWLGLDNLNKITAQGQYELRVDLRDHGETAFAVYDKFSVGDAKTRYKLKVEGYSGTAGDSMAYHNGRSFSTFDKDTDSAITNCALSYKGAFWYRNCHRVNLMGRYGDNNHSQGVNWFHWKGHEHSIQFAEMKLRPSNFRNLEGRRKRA
The description is as above. The procedure:
as §1, §2, §3

Test [4] addresses T1, mouse TNC rCd4-His-FBG. Briefly: SPR BIAcore T200, 37 C, IgG4 captured on anti-human Fc, rCd4-His-FBG injected, 1:1 fit; relative to theoretical Rmax. As for the experimental part: as §1, §2, §3
For test [5], the target named is T2, human TNR rCd4-His-FBG. The description is as above. As for the experimental part: as §1, §2, §3
In test [6] the target is T3, human TNC rCd4-His-FBG. Described as above. The procedure:
as §1, §2, §3

In test [7] the target is T1, mouse TNC rCd4-His-FBG. Kind of test: anti-FLAG capture DELFIA ELISA, scFv supernatant, biotinylated mouse rCd4-His-FBG. The procedure: E. coli clones harbouring scFv pSANG10 expression plasmids were induced in 96-well plates with auto-induction media as described previously (Schofield et al, 2007). E. coli supernatants were harvested for ELISA assays. ELISA used the DELFIA (dissociation enhanced lanthanide fluorescent immunoassay) system with Europium-labelled anti-FLAG antibody (Sigma, Aldrich, UK). Black immunosorb plates (Nunc) were coated overnight with anti-FLAG M2 antibody (Sigma, F3165, 5 μg/ml in PBS, 50 μl per well), in wells blocked by the addition of 2% milk powder, PBS (PBS-M, 300 μl per well). Plates were washed three times with PBS-T (PBS, 0.1% Tween-20) and three times with PBS followed by the addition of a 1:2 dilution of 96-well auto-induction culture supernatants containing expressed scFv in PBS-M (50 μl per well). The plates were incubated for 1 h, washed as above and biotinylated mouse or human rCd4-His-FBG ([…] in PBS-M, 50 μl) added to each well. Plates were incubated for a further 1 h, washed and Strepravidin-Eu added (Perkin Elmer, 1 μg/ml, PBS-M, 50 μl), incubated for 30 min, washed and DELFIA enhancement solution added (50 μl) and plates read on a Perkin Elmer Fusion plate reader (excitation=320 nm, emission 620 nm).
A general note: ELISA stands for enzyme-linked immunosorbent assay.

The target of test [8] is T3, human TNC rCd4-His-FBG. Kind of test: HTRF competition, scFv supernatant; competitor d2-labelled B12 IgG. The procedure: IgG antibodies were labelled using the d2 labelling kit (CisBio, 62D2DPEA) as directed by the manufacturer. Streptavidin europium cryptate (CisBio, 610SAKLA, Lot#25C) was used at a final concentration of 1.8 ng active moiety (SA) per 20 μl reaction as recommended by the manufacturer. Biotinylated rCd4-His-FBG was prepared using EZ-link Sulfo-NHS-LC-Biotin reagent (Thermo Scientific, 21327) the extent of biotinylation was quantified using biotinylation fluorescence quantitation kit (Thermo Scientific, 46610). Where appropriate, supernatants containing scFv (prepared as described above for ELISA assays) were added to the 384-well assay plate at a final dilution of 1/20 (i.e. ⅕ dilution in assay buffer followed by addition of 5 μl diluted sample to the 20 μl FRET assay). The concentrations of d2-labelled B12 IgG used for screening were 1.25 nM. Unless otherwise stated, biotinylated rCd4-His-FBG (biotin:protein ratio=1.8:1) was present at either 2.2 nM (in assays using the 2A5 IgG antibody) or 1 nM (in experiments using B12 IgG). Samples were incubated for approximately 1 h at room temperature and the FRET signal was determined using a BMG Pherastar instrument: excitation=320 nm; emission=620 nm and 665 nm; integration start time=60 μs; integration time=500 μs; 100 flashes per well. For competition assays containing culture supernatant, biotinylated rCd4-His-FBG antigen was pre-incubated with streptavidin europium cryptate for 45 min prior to addition of reagents to the assay plate. All FRET signals are presented as ΔR, where R =(E665/E620×104) and ΔR =(Rsample-Rbackground fluorescence).
Culture supernatants containing unlabelled scFv clones from affinity selected mutant libraries were tested for inhibition of the interaction between FBG and the fluorophore-labelled parental IgG antibody. […] The parental clones, expressed as scFvs in parallel with the affinity matured clones, were used as benchmarks.
(In general: TR-FRET usually uses a lanthanide donor and a delayed reading to cut background.)

The results in this text go back to patent US20200223910A1 (STERLING IP, published 2020).

Numbering of substitutions follows the chain as printed. Names may count otherwise.

B1: IgG4 165_13_C3* (antibody, V domains shown)
VH: QVQLVESGGGLVQPGRSLRLSCAASGFTFDDYAMHWVRQAPGKGLEWVSGISGSGGSTYYADSVKGRFTISRDNAKNSLYLQMNSLRAEDTALYYCAKSYQSDEDAFDIWGQGTMVTVSS
VL: DIQMTQSPSSLSASVGDRVTITCRASQYIQGFLNWYQQKPGKAPKLLIYDASNLETGVPSRFSGSGSGTDFTLTISSLQPEDFATYYCQQSYSTPQTFGQGTKVDIKR
notes: Hinge-modified IgG4 (S241P); neither is tied by name to C3* as tested; also called NSCT-141
One may read the Kd as the equilibrium constant for the complex coming apart. A lower Kd goes with higher affinity. One may read the koff as the first-order rate constant of dissociation. Read a high koff as a short-lived complex. In general, kon refers to a measure of how fast the partners come together. A high value points to fast association. As to B1, the Kd was 0.67 nM in test [1], 53.1 nM in test [2] and 0.443 nM in test [3]. Besides, the koff in test [1] turned out to be 0.0042 s⁻¹; in test [2], 0.058 s⁻¹; in test [3], 0.0041 s⁻¹. Besides, the figures for the kon in test [1], in test [2] and in test [3] were 6.28e+06 M⁻¹ s⁻¹, 1.11e+06 M⁻¹ s⁻¹ and 9.35e+06 M⁻¹ s⁻¹, respectively. The “SA, surface activity” value in test [4] stood at 304%; in test [5], 233%; in test [6], 297%.

B2: 165_13_D1 scFv (scFv, V domains shown)
VH: B1 VH with S99G, Y100T, Q101R, S102G, D103E, E104G, A106T
VL: B1 VL with S9A, S12P, A13T, S14P
notes: scFv in E. coli supernatant
With B2, the “fold improvement for mouse FBG binding against parent B12” value (“fold improvement for mouse FBG binding” below) in test [7] was at least 4 fold.

B3: 165_13_B6 scFv (scFv, V domains shown)
VH: B1 VH with S99G, Y100Q, Q101K, S102G, D103E, E104G, A106T
VL: B1 VL with S9A, S12P, A13T, S14P
notes: scFv in E. coli supernatant
For B3, in test [7], the “fold improvement for mouse FBG binding” value was at least 4 fold.

B4: 180_11_F5 scFv (scFv, V domains shown)
VH: B1 VH with S99V, Y100M, Q101R, S102T, D103G, E104L, A106T
VL: B1 VL with S9A, S12P, A13T, S14P
notes: scFv in E. coli supernatant
As for B4, in test [8], the “% inhibition of HTRF signal” value is at least 91%. Further, the “fold improvement for mouse FBG binding” value in test [7] is at least 4 fold.

B5: 165_13_C3 scFv (scFv, V domains shown)
VH: B1 VH
VL: B1 VL with S9A, S12P, A13T, S14P
notes: scFv in E. coli supernatant
As for B5, the “% inhibition of HTRF signal” value in test [8] is at least 91%. Besides, in test [7], the “fold improvement for mouse FBG binding” value was at least 4 fold.

B6: 165_13_B3 scFv (scFv, V domains shown)
VH: B1 VH with S99A, Y100L, Q101A, S102R, D103G, E104H, A106T
VL: B1 VL with S9A, S12P, A13T, S14P
notes: scFv in E. coli supernatant
Regarding B6, the “% inhibition of HTRF signal” value in test [8] was at least 91%. The “fold improvement for mouse FBG binding” value in test [7] is at least 4 fold.

B7: 165_13_A4 scFv (scFv, V domains shown)
VH: B1 VH with S99D, Y100K, Q101Y, S102P, D103V, E104L, A106T
VL: B1 VL with S9A, S12P, A13T, S14P
notes: scFv in E. coli supernatant
For the molecule B7, the “% inhibition of HTRF signal” value in test [8] was at least 91%. In test [7], the “fold improvement for mouse FBG binding” value was at least 4 fold.

B8: 165_13_E1 scFv (scFv, V domains shown)
VH: B1 VH with S99D, Y100I, Q101S, S102A, D103V, E104M, A106V, F107P, D108Q, I109T
VL: B1 VL with S9A, S12P, A13T, S14P
notes: scFv in E. coli supernatant
As to B8, the “% inhibition of HTRF signal” value in test [8] was at least 91%. Moreover, the “fold improvement for mouse FBG binding” value in test [7] is at least 4 fold.

B9: 165_13_B1 scFv (scFv, V domains shown)
VH: B1 VH with S99V, Y100M, Q101S, D103M
VL: B1 VL with S9A, S12P, A13T, S14P
notes: scFv in E. coli supernatant (pSANG10, FLAG-tagged)
For the molecule B9, in test [7], the “fold improvement for mouse FBG binding” value was at least 4 fold.

B10: 165_13_D4 scFv (scFv, V domains shown)
VH: B1 VH with S99G, Y100T, Q101V, S102G, D103E, E104G, A106T
VL: B1 VL with S9A, S12P, A13T, S14P
notes: scFv in E. coli supernatant
Turning to B10, the “% inhibition of HTRF signal” value in test [8] is at least 91%. For the same molecule, the “fold improvement for mouse FBG binding” value in test [7] is at least 4 fold.
